The target of the assay is mouse TRPV4 fused to mCherry (mouse, UniProt Q9EPK8 1-871). The experiment in a line: cross-correlation raster image correlation spectroscopy.

The source of these data is publication PMC4003184 (The Journal of General Physiology, 2014).

mouse TRPV4 fused to mCherry, sequence (Q9EPK8 whole entry, the tested form may be a part): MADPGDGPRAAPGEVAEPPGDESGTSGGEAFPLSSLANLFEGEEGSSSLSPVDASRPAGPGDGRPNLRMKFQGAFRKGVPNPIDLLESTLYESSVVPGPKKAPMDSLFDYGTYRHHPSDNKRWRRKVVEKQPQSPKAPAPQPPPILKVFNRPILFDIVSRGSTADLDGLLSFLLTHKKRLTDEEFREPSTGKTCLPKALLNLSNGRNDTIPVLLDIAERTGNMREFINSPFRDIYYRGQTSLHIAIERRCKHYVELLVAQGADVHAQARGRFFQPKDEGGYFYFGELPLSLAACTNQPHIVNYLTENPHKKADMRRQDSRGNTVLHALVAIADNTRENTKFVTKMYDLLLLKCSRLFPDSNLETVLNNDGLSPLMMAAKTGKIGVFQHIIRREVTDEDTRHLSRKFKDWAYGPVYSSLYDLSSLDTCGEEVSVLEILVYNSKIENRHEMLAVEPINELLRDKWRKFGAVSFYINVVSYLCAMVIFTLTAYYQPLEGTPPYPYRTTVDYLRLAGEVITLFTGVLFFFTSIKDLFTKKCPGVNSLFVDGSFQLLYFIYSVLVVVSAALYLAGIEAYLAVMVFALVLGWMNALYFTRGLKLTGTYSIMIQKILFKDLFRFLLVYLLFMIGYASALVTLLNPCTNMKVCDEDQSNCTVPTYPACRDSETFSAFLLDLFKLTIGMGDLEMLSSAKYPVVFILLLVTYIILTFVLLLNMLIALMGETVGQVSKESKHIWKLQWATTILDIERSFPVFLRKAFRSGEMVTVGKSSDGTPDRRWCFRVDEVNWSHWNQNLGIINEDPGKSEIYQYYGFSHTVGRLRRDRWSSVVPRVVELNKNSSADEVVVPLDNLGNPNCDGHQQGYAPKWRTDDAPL

B1: AKAP150 fused to EGFP (natural protein, UniProt P24587 1-714, looked up)
chain: METSVSEIQIETKDEKRPEAASPQKERQERKTATLCFKRRKKVNKKKAKAGSKTAEETEKHAPEAGGSGQRQPAGAWASIKRLVTHRKPSESAEKQKPSEAEMQPEDGALPKKKTKSKLKIPCIRFSRGAKRSRPSKLTEDSGYVRVQGEADDLEIKAQIQPDEQATQAKSTQGLQEDVIVRDGKEIQESHISNNVISGEHVIGIELELEKESSALRMRTPGSEKEAKVILVKQGVQVQEASVLENSAADSPQPVTSTAPLSPATTHQLGLEEPSDSIRESAPSGKDDGRRKTAAEEKKSGETALGQAEEASSVSQADKSVLSQAEEATVGHTEEATVIQAQSQAKEGKLSQAEEATVAQAKETVLSQAEEVKLSQIEEPAISQAKKATVGQAKEAYVSQAEEAIVGHTEKATMGQAEEATVGHIEKTTVGQAEEATVGQAEEATVGQAEEATVGQAEEATVGQAEEATVGQAGEATVSHIEKTTVGQAEEAIVGQAEEATVGQAEEATVGQAEEATVGQAEEATVDQAEEATVGQAEEATVGQAGEAAVGQAEEAIVAQAEEATVGQAGEATVGQAEKATVGQAEEPIVGQAEETVLRHASDLKVNGVDAEKPRSEESKRMEPIAIIITDTEISEFDVKKSKNVPKQFLISMENEQVGVFANDSDFEGRTSEQYETLLIETASSLVKNAIELSVEQLVNEMVSEDNQINTLFQ
With B1, the “cross-correlation ratio (Gcc/[mean of G_(TRPV4) and G_(AKAP)])” value was found to be 0.4.
